Experimental data taken from the RNAGym collection of RNA variant scans (doi:10.7554/elife.80360).

B1: Hairpin Ribozyme (parent)
chain: GUCCUCUUUCACGUGCGCGUGAAAGAGAGAAGUGAACCAGAGAAACACACGUUGUGGUAUAUUACCUGGUA

Variants of: B1
Assay: self-cleavage, relative activity (ratio to wild type); higher = more cleavage; co-transcriptional

Which self-cleavage does the source give for C10U A47G here?
The self-cleavage was 0.169.

Which self-cleavage does the source give for C10U A47C here?
Its self-cleavage is 0.257.

With C10U A47U as the variant, how does the self-cleavage read?
The self-cleavage was 0.109.

For C10G A36U, which self-cleavage is on record?
Its self-cleavage is 0.336.

With C10G G51C as the variant, how does the self-cleavage read?
The self-cleavage was 0.585.

With C10G U14A as the variant, how does the self-cleavage read?
The self-cleavage was 0.635.

Which self-cleavage does the source give for C10G U14G here?
The self-cleavage was 0.378.

For C10G U14C, which self-cleavage is on record?
The self-cleavage was 0.573.

For A11C U52A, which self-cleavage is on record?
The self-cleavage was 0.762.

Which self-cleavage does the source give for U9G G15A here?
The self-cleavage was 0.646.

With C10G G15A as the variant, how does the self-cleavage read?
Its self-cleavage is 0.624.

For C10G G15U, which self-cleavage is on record?
The self-cleavage was 0.851.

With C10U G68C as the variant, how does the self-cleavage read?
The self-cleavage was 0.229.

Which self-cleavage does the source give for C10U A41G here?
The self-cleavage was 0.765.

For A11C A41G, which self-cleavage is on record?
The self-cleavage was 0.701.

With C10U A11C as the variant, how does the self-cleavage read?
The self-cleavage was 0.696.

For U9G U60C, which self-cleavage is on record?
The self-cleavage was 1.04.

For U9G U60A, which self-cleavage is on record?
Its self-cleavage is 0.645.

With A11G A45G as the variant, how does the self-cleavage read?
Its self-cleavage is 0.271.

For A11G A45C, which self-cleavage is on record?
Its self-cleavage is 0.124.

Which self-cleavage does the source give for C10U A26C here?
Its self-cleavage is 0.687.

With C10A C66A as the variant, how does the self-cleavage read?
The self-cleavage was 0.283.

With C10A C66G as the variant, how does the self-cleavage read?
The self-cleavage was 0.158.

Which self-cleavage does the source give for C10A C66U here?
Its self-cleavage is 0.312.

Which self-cleavage does the source give for A11C U60G here?
Its self-cleavage is 0.714.

Which self-cleavage does the source give for A11C U60A here?
Its self-cleavage is 0.716.

With C10U A61U as the variant, how does the self-cleavage read?
The self-cleavage was 0.246.

With C10A G29A as the variant, how does the self-cleavage read?
Its self-cleavage is 0.111.

With A11C G21U as the variant, how does the self-cleavage read?
Its self-cleavage is 0.799.

Which self-cleavage does the source give for C10G G17A here?
The self-cleavage was 0.676.

Which self-cleavage does the source give for A11G A41G here?
The self-cleavage was 1.01.

Which self-cleavage does the source give for A11C G27U here?
The self-cleavage was 0.365.

For C10G A35U, which self-cleavage is on record?
Its self-cleavage is 0.517.

Which self-cleavage does the source give for U9G U14C here?
The self-cleavage was 0.831.

Which self-cleavage does the source give for U9G A28C here?
The self-cleavage was 0.315.

Which self-cleavage does the source give for U9G A28G here?
The self-cleavage was 1.01.

Which self-cleavage does the source give for U9G G21C here?
The self-cleavage was 0.736.

With U9G G21U as the variant, how does the self-cleavage read?
The self-cleavage was 0.674.

With C10G C12A as the variant, how does the self-cleavage read?
Its self-cleavage is 0.491.

With C10G C38G as the variant, how does the self-cleavage read?
The self-cleavage was 0.133.

Which self-cleavage does the source give for C10G C38U here?
Its self-cleavage is 0.435.

For A11C G56C, which self-cleavage is on record?
The self-cleavage was 0.108.

For U9G C18U, which self-cleavage is on record?
Its self-cleavage is 0.793.

With U9G G69A as the variant, how does the self-cleavage read?
Its self-cleavage is 0.223.

Which self-cleavage does the source give for U9G G69U here?
Its self-cleavage is 0.111.

Which self-cleavage does the source give for A11C A28C here?
The self-cleavage was 0.481.

With C10G A28C as the variant, how does the self-cleavage read?
Its self-cleavage is 0.306.

Which self-cleavage does the source give for A11C U67A here?
Its self-cleavage is 0.116.

With A11C U67G as the variant, how does the self-cleavage read?
The self-cleavage was 0.168.

Which self-cleavage does the source give for C10G A59C here?
The self-cleavage was 0.127.

Which self-cleavage does the source give for C10G A59G here?
Its self-cleavage is 0.171.

With A11C A31U as the variant, how does the self-cleavage read?
The self-cleavage was 0.18.

Which self-cleavage does the source give for A11C A31G here?
Its self-cleavage is 0.437.

With C10A A64G as the variant, how does the self-cleavage read?
The self-cleavage was 0.397.

For A11G A36C, which self-cleavage is on record?
The self-cleavage was 0.508.

For U9G C48U, which self-cleavage is on record?
Its self-cleavage is 0.158.

Which self-cleavage does the source give for U9G C48G here?
Its self-cleavage is 0.0994.

For U9G C48A, which self-cleavage is on record?
The self-cleavage was 0.12.

For C10U G34A, which self-cleavage is on record?
The self-cleavage was 1.04.

With C10U U20G as the variant, how does the self-cleavage read?
The self-cleavage was 0.498.

For C10G U62G, which self-cleavage is on record?
Its self-cleavage is 0.138.

For A11C C12U, which self-cleavage is on record?
The self-cleavage was 0.766.

For A11C C12G, which self-cleavage is on record?
Its self-cleavage is 0.903.

For C10A A24C, which self-cleavage is on record?
Its self-cleavage is 0.598.

Which self-cleavage does the source give for C10G C46U here?
Its self-cleavage is 0.0874.

With U9G C16U as the variant, how does the self-cleavage read?
The self-cleavage was 0.857.

Which self-cleavage does the source give for U9G C16A here?
The self-cleavage was 0.668.

For A11C G51U, which self-cleavage is on record?
Its self-cleavage is 1.13.

For A11C G51C, which self-cleavage is on record?
The self-cleavage was 0.8.

Which self-cleavage does the source give for U9G G68U here?
The self-cleavage was 0.189.

With A11G A43U as the variant, how does the self-cleavage read?
The self-cleavage was 0.199.

For A11G A43G, which self-cleavage is on record?
Its self-cleavage is 0.128.

Which self-cleavage does the source give for A11G A43C here?
The self-cleavage was 0.0944.

Which self-cleavage does the source give for C10G U67G here?
Its self-cleavage is 0.205.

Which self-cleavage does the source give for C10G G19C here?
Its self-cleavage is 0.539.

For C10A G19U, which self-cleavage is on record?
The self-cleavage was 0.59.

With C10G A39G as the variant, how does the self-cleavage read?
The self-cleavage was 0.267.

For C10G A39C, which self-cleavage is on record?
Its self-cleavage is 0.357.

For A11C U14A, which self-cleavage is on record?
Its self-cleavage is 0.533.

With C10A A49G as the variant, how does the self-cleavage read?
The self-cleavage was 0.357.

Which self-cleavage does the source give for C10U U55A here?
The self-cleavage was 0.213.

For C10U U55C, which self-cleavage is on record?
Its self-cleavage is 0.337.

Which self-cleavage does the source give for C10U U55G here?
The self-cleavage was 0.201.
